The values that follow come from US20200362026A1 (INSTITUTE FOR RESEARCH IN BIOMEDICINE, published 2020).

In one assay the target is T1, mouse GM-CSF (mouse, UniProt P01587 18-141).
T1 sequence (looked up): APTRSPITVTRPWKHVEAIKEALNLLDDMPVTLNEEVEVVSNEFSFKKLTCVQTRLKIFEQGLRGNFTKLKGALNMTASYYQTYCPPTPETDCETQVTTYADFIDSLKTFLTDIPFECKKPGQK
In words: ELISA.

A further assay concerns the target T2, rat GM-CSF (rat, UniProt P48750 18-144).
T2 sequence (looked up): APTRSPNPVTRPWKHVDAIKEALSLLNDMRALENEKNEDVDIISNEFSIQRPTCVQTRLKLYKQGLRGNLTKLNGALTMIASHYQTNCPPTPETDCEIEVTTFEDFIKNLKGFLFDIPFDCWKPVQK
Description: ELISA.

Assay [1] has as its target T3, human GM-CSF (granulocyte macrophage-colony stimulating factor) (human, UniProt P04141 18-144).
T3 construct: Soluble cytokine used in ELISA, SPR, TF-1 bioassay and immune complex formation; also called recombinant GM-CSF
In words: SPR (ProteOn), mAb captured on protein A, GM-CSF as analyte, Langmuir fit. How it is done:
The kinetics of binding was determined by surface plasmon resonance (SPR). […] HEPES buffered saline (HBS) (10 mM HEPES, pH 7.4, 150 mM NaCl, 3 mM EDTA, 0.005% surfactant Tween-20) was used as running buffer. All injections were made at flow rate of 100 µl/min. […] Injection time and dissociation time were 120 s and 600 s, respectively. Each binding interaction of mAbs with GM-CSF was assessed using a ProteON XPR36 instrument (Biorad) and data processed with ProteOn Manager Software. Ka, Kd and KD were calculated applying the Langmuir fit model.

Assay [2] addresses T3, human GM-CSF (granulocyte …). Description: ELISA on human GM-CSF. The method, then: All antibodies were recombinantly produced as IgG1 by transient transfection of HEK 293 Freestyle Cells (Invitrogen) using polyethylenimine (PEI). The antibodies were then tested for binding to human GM-CSF by ELISA. […] The EC50 values (ng/ml) were determined by ELISA and calculated for every sample by nonlinear regression analysis using GraphPad Prism 5 software.

Assay [3] has as its target T4, FcγRIIb (UniProt P31994 43-310, limits assumed).
T4 construct: whole, on cells; also called FcgRIIb; Fcγ receptor IIb
T4 sequence (looked up): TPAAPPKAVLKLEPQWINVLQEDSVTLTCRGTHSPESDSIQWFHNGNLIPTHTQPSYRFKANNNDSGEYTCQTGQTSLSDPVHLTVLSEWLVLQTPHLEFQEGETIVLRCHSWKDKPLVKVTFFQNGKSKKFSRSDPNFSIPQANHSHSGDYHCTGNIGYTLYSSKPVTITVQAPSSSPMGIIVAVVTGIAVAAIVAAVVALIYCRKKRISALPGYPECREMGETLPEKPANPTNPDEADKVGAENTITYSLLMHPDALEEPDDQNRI
In words: flow cytometry, TZM-bl cells expressing FcγRIIb, immune complex with low GM-CSF. The method, then:
(§1) Expression of specific FcγRs was assessed by staining TZM-b1 cells with FITC-conjugated anti-CD64 (anti-FcγRI), anti-CD32 (anti-FcγRIIa and anti-FcγRIIb) and anti-CD16 (anti-FcγRIIIa) antibodies (all from BD Pharmingen). Untrasfected and transfected TZM-b1 cells were washed with staining buffer (PBS with 10% Fetal Bovine Serum and 2 mM EDTA) and seeded in 96-well-plates at a density of 50,000 cells per well. […] The LALA versions of all antibodies and a mAb with a different specificity were included as controls. Samples were incubated at 37° C. for 30 min to allow the formation of immune complexes and then cooled down to 4° C. before adding them to TZM-b1 cells for 30 min. Cells were washed twice and stained with anti-human IgG Fcγ fragment specific F(ab′)2 fragment (Jackson ImmunoResearch). Samples were analyzed on BD FACSCanto (BD Biosciences) and median intensity fluorescence was analyzed and compared between samples.
(§2) To address the engagement of Fcγ receptors, immune complexes formed between GM-CSF and multispecific antibodies were tested for their capacity to bind to TZM-b1 cells expressing FcγRIIa and FcγRIIb receptors. Multispecific antibodies were mixed with 0.05 μg/ml of GM-CSF, or staining buffer. Samples were incubated at 37° C. for 30 min to allow the formation of immune complexes and then cooled down to 4° C. before adding them to TZM-b1 cells for 30 minutes. Cells were washed twice and stained with anti-human IgG Fcγ fragment specific F(ab′)2 fragment. Samples were analyzed on BD FACSCanto (BD Biosciences) and median intensity fluorescence was analyzed and compared between samples.

In assay [4] the target is T5, FcγRIIa (UniProt P12318 34-317, limits assumed).
T5 construct: whole, on cells; also called FcgRIIa; Fcγ receptor IIa
T5 sequence (looked up): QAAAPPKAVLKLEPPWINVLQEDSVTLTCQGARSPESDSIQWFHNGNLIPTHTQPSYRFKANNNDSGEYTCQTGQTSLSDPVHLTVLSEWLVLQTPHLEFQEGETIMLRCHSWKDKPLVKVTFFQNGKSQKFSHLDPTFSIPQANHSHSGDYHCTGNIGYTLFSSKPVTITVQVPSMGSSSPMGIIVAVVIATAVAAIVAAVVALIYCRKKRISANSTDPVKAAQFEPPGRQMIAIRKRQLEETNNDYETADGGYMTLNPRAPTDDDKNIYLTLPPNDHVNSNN
Description: flow cytometry, TZM-bl cells expressing FcγRIIa, immune complex with high GM-CSF. The method, then: as §2

In assay [5] the target is T4, FcγRIIb. In words: flow cytometry, TZM-bl FcγRIIb cells; average ratio of binding in presence and in absence of GM-CSF. How it is done:
as §1, §2

The target of assay [6] is T4, FcγRIIb. Description: flow cytometry, TZM-bl cells expressing FcγRIIb, immune complex with high GM-CSF. The method, then: as §1, §2
Assay [7] has as its target T3, human GM-CSF (granulocyte …). In words: cell-based or functional assay.
Assay [8] concerns the target T4, FcγRIIb. Description: flow cytometry, TZM-bl cells expressing FcγRIIb, mAb alone (w/o GM-CSF). The method, then:
as §1, §2

The target of assay [9] is T5, FcγRIIa. Description: flow cytometry, TZM-bl cells expressing FcγRIIa, immune complex with low GM-CSF. How it is done: as §1, §2
Assay [10] addresses T5, FcγRIIa. Description: flow cytometry, TZM-bl cells expressing FcγRIIa, mAb alone (w/o GM-CSF). How it is done: as §1, §2
Assay [11] concerns the target T3, human GM-CSF (granulocyte …). In words: ELISA on GM-CSF.
The target in assay [12] is T5, FcγRIIa. Description: flow cytometry, TZM-bl FcγRIIa cells; average ratio of binding in presence and in absence of GM-CSF. The method, then: as §2

T3 sequence (P04141 18-144 limits assumed): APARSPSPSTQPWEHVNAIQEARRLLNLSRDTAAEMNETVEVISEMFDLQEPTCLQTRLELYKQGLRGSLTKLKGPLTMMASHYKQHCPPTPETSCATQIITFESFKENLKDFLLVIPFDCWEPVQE

B1: GCE536 (antibody, human IgG1, kappa, V domains shown)
VH: QLQLVQSGTEVKKPGASVKVSCKSSGYVFTSYYLVWVRQAPGQGLEWMATISPGDVNTSYEQRFQGRVTVTTDASTNTVDMELRSLRSEDTAVYYCARGPRSKPPYLYFALDVWGQGTAVTVSS
VL: EIVLTQSPGTLSLSPGETAILSCRASQSVSSSLLAWYQQKPGQAPRLLIYGASNRATGIRGRFSGSGSGTDFTLTISRLEPEDFVLYYCQHYGSRVTFGQGTKLEIKR
notes: also called GCE536 antibody
As to B1, the binding result with mouse GM-CSF is “no binding”. The binding result in the assay with rat GM-CSF is listed as “no binding”. In addition, in assay [1], the Kd came out at 180 pM, the koff is 0.00011 s⁻¹ and the kon is 660000 M⁻¹ s⁻¹. Besides, in assay [2], a half-maximal effect (EC50) was put at 0.0614 µg/mL.

B2: Bs3GC4 bispecific antibody (bispecific antibody, human IgG1, kappa)
heavy: not shown
light: DIQMTQSPSTLSTSVGDRVTITCRASQNILNWLAWYQQKPGNAPNLLIYKASDLQSGVPSRFSGSGSGTEFTLTISSLQPDDFATYYCQHYNSYPLTFGGGTKVEIKRTVAAPSVFIFPPSDEQLKSGTASVVCLLNNFYPREAKVQWKVDNALQSGNSQESVTEQDSKDSTYSLSSTLTLSKADYEKHKVYACEVTHQGLSSPVTKSFNRGEC
notes: Bispecific tetravalent IgG1, construct type Bs3; specificities GCA21 + GCE536; also called BsGC4
For B2, the MFI with FcγRIIb [3] stood at 137000 MFI; with FcγRIIa [4] it was 19500 MFI; with FcγRIIb [6] it was 62600 MFI; in the assay with FcγRIIb [8] it was 123000 MFI; in the assay with FcγRIIa [9], 24500 MFI; with FcγRIIa [10] it was 6730 MFI. In addition, the “Average RATIO FcgRIIb” value with FcγRIIb [5] turned out to be 0.81 ratio. Besides, the “IC90 less stringent conditions (50 pg/ml GM-CSF, 1,000 TF-1/well)” value in assay [7] turned out to be 0.00926 µg/mL. Besides, the “IC90 more stringent conditions (500 pg/ml GM-CSF, 1,000 TF-1/well)” value in [7] was 0.0975 µg/mL. The “IC90 stringent conditions (50 pg/ml GM-CSF, 10,000 TF-1/well)” value in [7] amounted to 0.0908 µg/mL. In addition, in assay [7], the “IC90 very stringent conditions (500 pg/ml GM-CSF, 10,000 TF-1/well)” value is 0.739 µg/mL. In assay [11], this molecule registered a concentration for a half-maximal effect (EC50) of 0.0323 µg/mL. The “Average RATIO FcgRIIa” value with FcγRIIa [12] turned out to be 3.26 ratio.

B3: Bs3GC5 bispecific antibody (bispecific antibody, human IgG1, kappa)
heavy: not shown
light: DIQMTQSPSTLSTSVGDRVTITCRASQNILNWLAWYQQKPGNAPNLLIYKASDLQSGVPSRFSGSGSGTEFTLTISSLQPDDFATYYCQHYNSYPLTFGGGTKVEIKRTVAAPSVFIFPPSDEQLKSGTASVVCLLNNFYPREAKVQWKVDNALQSGNSQESVTEQDSKDSTYSLSSTLTLSKADYEKHKVYACEVTHQGLSSPVTKSFNRGEC
notes: Bispecific tetravalent IgG1, construct type Bs3; specificities GCA21 + GCA7
B3: the MFI worked out at 393000 MFI in the assay with FcγRIIb [3]; 468000 MFI with FcγRIIa [4]; 1.58e+06 MFI with FcγRIIb [6]; 177000 MFI with FcγRIIb [8]; 30200 MFI in the assay with FcγRIIa [9]; 1100 MFI with FcγRIIa [10]. Further, the “Average RATIO FcgRIIb” value with FcγRIIb [5] came to 5.58 ratio. Moreover, the “IC90 less stringent conditions (50 pg/ml GM-CSF, 1,000 TF-1/well)” value in [7] is 0.0013 µg/mL. In addition, the “IC90 more stringent conditions (500 pg/ml GM-CSF, 1,000 TF-1/well)” value in assay [7] was 0.00647 µg/mL. In assay [7], the “IC90 stringent conditions (50 pg/ml GM-CSF, 10,000 TF-1/well)” value is 0.00418 µg/mL. The “IC90 very stringent conditions (500 pg/ml GM-CSF, 10,000 TF-1/well)” value in assay [7] is 0.0103 µg/mL. In addition, in assay [11], the 50% effective concentration (EC50) amounted to 0.0418 µg/mL. The “Average RATIO FcgRIIa” value with FcγRIIa [12] came out at 226 ratio.

B4: GCA21 (antibody, IgG1, V domains shown)
VH: QVQLMESGGGVVQPGRSLRLSCSAFGFTFSNYPMHWVRQAPGKGLEWVAIILPDGNRKNYGRSVTGRFTISRDNSNNSLYLQMNNLTTEDTAMYYCTRDGTYYSNGGVYQTYRRFFDFWGRGTLVTVSS
VL: DIQMTQSPSTLSTSVGDRVTITCRASQNILNWLAWYQQKPGNAPNLLIYKASDLQSGVPSRFSGSGSGTEFTLTISSLQPDDFATYYCQHYNSYPLTFGGGTKVEIKR
notes: also called GCA21 antibody
Turning to B4, in the assay with mouse GM-CSF, the binding result is reported as “no binding”. Further, the binding result with rat GM-CSF is given as “no binding”. Moreover, in assay [1], the equilibrium dissociation constant (Kd) worked out at 690 pM, the off-rate constant (koff) turned out to be 0.00065 s⁻¹ and the association rate constant (kon) stood at 950000 M⁻¹ s⁻¹. In addition, the concentration giving a half-maximal response (EC50) in assay [2] is 0.0594 µg/mL.

B5: GCB59 (antibody, IgG1, V domains shown)
VH: EVQLVESGGDLVKAGGSLRLSCAVSGLSFSSSGMNWVRQAPGKGLEWISSISGSQNYKYYADSVKGRFVVSRDNARNFLYLQMDSLRAEDTAVYFCVGGFPYWLPPSDFSGFHVWGQGTTVTVSS
VL: SYVLTQPPSVSVAPGQTASLTCGGTNIGSKSVHWYQQKAGQAPVLVVYADNDRPSGVPERFSGSNSGNTATLTISRVEAEDESDYFCQVWDGNTDHVVFGGGTKLTVLG
notes: also called GCB59 antibody
As to B5, the binding result with mouse GM-CSF is on record as “no binding”. Also, the binding result with rat GM-CSF is listed as “no binding”. In addition, in [1], the dissociation constant Kd was found to be 680 pM, the off-rate constant (koff) stood at 0.0012 s⁻¹ and the kon is 1.7e+06 M⁻¹ s⁻¹. This molecule also registered an EC50 in [2] of 0.308 µg/mL.

B6: GCA7 (antibody, human IgG1, kappa, V domains shown)
VH: GVQLVQSGGGLVQPGGSLRLSCAASGFTVSTNYMSWVRQAPGKGLEWVSILYAGGVTRYADSVKTRFTISRDNSKNTLFLQMNALSAEDTAIYYCAKHYDSGYSTIDHFDSWGQGTLVTVSS
VL: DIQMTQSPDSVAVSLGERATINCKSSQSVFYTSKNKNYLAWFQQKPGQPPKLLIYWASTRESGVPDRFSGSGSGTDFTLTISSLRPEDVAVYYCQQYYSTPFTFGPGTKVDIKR
notes: also called GCA7 antibody
For the molecule B6, the binding result with mouse GM-CSF is listed as “no binding”. Also, the binding result in the assay with rat GM-CSF was “no binding”. In assay [1], this molecule came in with a Kd of 380 pM, a koff of 6e-05 s⁻¹ and a kon of 240000 M⁻¹ s⁻¹. In addition, a half-maximal response in assay [2] (EC50) required 0.187 µg/mL.
